Source: paper PMC6969036 (Nature Communications, 2020)

B1: STAND-A36 (s3Flag-scFv-A36-HA) expressed in 293T cells (scFv, V domains shown)
VH: QVQLQQSGAELVRPGALVKLSCKASGFNIEDYYLHWVKQRPAQGLEWIGGIDPENGIAIYDSKFQGKASITADTSSNTAYLQLSSLTSEDTAVYYCATSEDSFDVWGQGTTVTVS
VL: DIELTQSPATMAASPGEKITITCSASSSISSNYLHWYQQKPGFSPKLLIYRTSNLASGVPARFSGSGSGTSYSLTIGTMEAEDVATYYCQQGSSIPLTFGAGTKLEIK
B2: STAND-A36 (s3Flag-scFv-A36-HA), purified from E. coli (scFv, V domains shown)
VH: B1 VH
VL: B1 VL
notes: scFv-A36: VH-(Gly4-Ser)3 linker-VL, from the spleen of Balb/c mice immunised with GST-Syt II-C2A (phage display); s3Flag-scFv-HA constructs were synthesised and codon-optimised (Genscript); also called s3Flag-A36-HA; purified STAND-A36
B3: scFv-T7-A36 (scFv-A36 fused with T7- and His-tags), purified from E. coli (scFv, V domains shown)
VH: B1 VH
VL: B1 VL
notes: scFv-A36: VH-(Gly4-Ser)3 linker-VL; source: E. coli, purified under non-denaturing conditions (Probond nickel-chelating resin); not shown: T7, N-terminal, kept; His6, C-terminal, kept

Columns and labels:
[1] = biological target: Syt I (synaptotagmin I) expressed in 293T cells (UniProt P46096); assay: cell-based or functional assay
[2] = biological target: T1, GST-Syt I-C2A (C2A domain of synaptotagmin I fused to glutathione S-transferase) (Mus musculus (assumed), UniProt P46096); assay: ELISA; GST-Syt I-C2A (0.25 pmol) coated on wells in PBS, 16 h 24 °C; blocked with 5% skim milk in PBS with 0.1% Tween 20; purified scFv (0.22-36 nM STAND-A36, 1.17-1800 nM scFv-T7-A36, 3.77-601 nM scFv-GFPA36) 2 h at 24 °C; detected with anti-Flag or anti-His; binding to GST wells subtracted; Kd from Hill-Langmuir fit; details: both partners purified
T1 construct: synaptotagmin I, C2A domain; its full-length Syt vectors are mouse; also called GST-C2A; source: purified

[3] = biological target: T2, GST-Syt I-C2B (C2B domain of synaptotagmin I fused to GST) (Mus musculus (assumed), UniProt P46096); assay: ELISA; purified STAND-A36 on the indicated GST-fused proteins (GST-C2A, GST-C2B, GST); absorbance, n = 3; details: both partners purified
T2 construct: synaptotagmin I, C2B domain; also called GST-C2B; source: purified
T2 sequence (P46096 whole entry, looked up, the tested form may be a part): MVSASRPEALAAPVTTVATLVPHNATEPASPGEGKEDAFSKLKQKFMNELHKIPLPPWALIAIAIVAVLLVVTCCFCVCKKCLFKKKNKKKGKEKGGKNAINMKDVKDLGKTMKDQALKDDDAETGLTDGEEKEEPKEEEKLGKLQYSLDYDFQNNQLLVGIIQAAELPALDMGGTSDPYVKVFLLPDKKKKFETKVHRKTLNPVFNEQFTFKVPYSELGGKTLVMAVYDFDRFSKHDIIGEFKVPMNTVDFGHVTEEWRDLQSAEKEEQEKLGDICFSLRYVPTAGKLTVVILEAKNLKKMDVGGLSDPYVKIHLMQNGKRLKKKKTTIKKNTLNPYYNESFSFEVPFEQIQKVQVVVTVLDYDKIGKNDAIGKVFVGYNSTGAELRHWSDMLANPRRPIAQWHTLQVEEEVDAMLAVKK

Sequence of Syt I (synaptotagmin I) expressed in 293T cells (P46096 whole entry, the tested form may be a part): as the sequence (P46096 whole entry, looked up, the tested form may be a part) above

Binder | basal dopamine release in the striatum of mice expressing STAND-A36 (microdialysis), inhibition relative to mice expressing STAND-M4 [1] | high potassium (60 mM)-induced dopamine release in cultured dopamine neurons infected with AAV1-STAND-A36, relative to STAND-M4 [1] | Kd [2] | binding result [3]
B1 | 55.3% | 79.3% | – | –
B2 | – | – | 0.0122 µM | no binding
B3 | – | – | 0.341 µM | –
